{"source": "paper PMC7150849", "key": {"[1]": {"biological_target": "CHR-derived peptide C34 of HIV-1 JRFL gp41 with the N126K mutation (HIV-1 JRFL)", "assay": "circular dichroism spectroscopy"}, "[2]": {"biological_target": "CHR-derived peptide C34 of HIV-1 JRFL gp41 with the N126K mutation (HIV-1 JRFL)", "assay": "ITC"}, "[3]": {"biological_target": "CHR-derived peptide C34 of HIV-1 JRFL gp41 (HIV-1 JRFL)", "assay": "ITC"}, "[4]": {"biological_target": "CHR-derived peptide C34 of HIV-1 NL4-3 gp41 with the N126K mutation (HIV-1 NL4-3)", "assay": "circular dichroism spectroscopy"}, "[5]": {"biological_target": "CHR-derived peptide C34 of HIV-1 NL4-3 gp41 with the N126K mutation (HIV-1 NL4-3)", "assay": "ITC"}, "[6]": {"biological_target": "CHR-derived peptide C34 of HIV-1 92RW020 gp41 with the N126K mutation (HIV-1 92RW020)", "assay": "circular dichroism spectroscopy"}, "[7]": {"biological_target": "CHR-derived peptide C34 of HIV-1 92RW020 gp41 (HIV-1 92RW020)", "assay": "ITC"}, "[8]": {"biological_target": "CHR-derived peptide C34 of HIV-1 92RW020 gp41 with the N126K mutation (HIV-1 92RW020)", "assay": "ITC"}}}
{"substance": "NHR-derived peptide N36 of HIV-1 JRFL gp41", "values": [{"measurement": "Tm of the complex", "setting": "[1]", "value": 62.7, "unit": "°C"}, {"measurement": "Ka", "setting": "[2]", "value": "1.2e+06", "unit": "M⁻¹"}, {"measurement": "dH", "setting": "[2]", "value": -35, "unit": "kcal/mol"}, {"measurement": "stoichiometry N", "setting": "[2]", "value": 1.4, "unit": "Site"}, {"measurement": "Ka", "setting": "[3]", "value": 430000, "unit": "M⁻¹"}, {"measurement": "dH", "setting": "[3]", "value": -44, "unit": "kcal/mol"}, {"measurement": "stoichiometry N", "setting": "[3]", "value": 1.3, "unit": "Site"}]}
{"substance": "NHR-derived peptide N36 of HIV-1 NL4-3 gp41 (from UniProt P04578 546-581)", "values": [{"measurement": "Tm of the complex", "setting": "[4]", "value": 68.5, "unit": "°C"}, {"measurement": "Ka", "setting": "[5]", "value": "1.9e+06", "unit": "M⁻¹"}, {"measurement": "dH", "setting": "[5]", "value": -38, "unit": "kcal/mol"}, {"measurement": "stoichiometry N", "setting": "[5]", "value": 1.2, "unit": "Site"}]}
{"substance": "NHR-derived peptide N36 of HIV-1 92RW020 gp41", "values": [{"measurement": "Tm of the complex", "setting": "[6]", "value": 62.7, "unit": "°C"}, {"measurement": "Ka", "setting": "[7]", "value": 940000, "unit": "M⁻¹"}, {"measurement": "dH", "setting": "[7]", "value": -49, "unit": "kcal/mol"}, {"measurement": "stoichiometry N", "setting": "[7]", "value": 1.4, "unit": "Site"}, {"measurement": "Ka", "setting": "[8]", "value": "1.3e+06", "unit": "M⁻¹"}, {"measurement": "dH", "setting": "[8]", "value": -55, "unit": "kcal/mol"}, {"measurement": "stoichiometry N", "setting": "[8]", "value": 1, "unit": "Site"}]}
